In paper PMC5379950:

Molecular target: microtubules (MTs) assembled with taxol in M-phase Xenopus egg extract (Xenopus laevis (endogenous in egg extract))
Test: co-sedimentation

fold increase in MT binding (against xINCENP): 2 fold
Substance: GFP-xINCENP 7A (from UniProt O13024 1-873) (natural protein)
